Test results published in FireProtDB (doi:10.1006/jmbi.2000.4053).
“And” between values parts separate entries of the source, which are not always exact repeats. Identical values can stand only once.

Conditions: Homo sapiens, pH 5, 25 °C
[1] = GdnHCl, CD, Sodium acetate 50 mM, structure 1TTG
[2] = Urea, CD, Sodium acetate 50 mM, structure 1TEN
[3] = GdnHCl, Fluorescence, Sodium acetate 50mM, transition: 2, structure 1TEN

Sequence of Fibronectin V1603A, P02751 (P02751 whole entry V1603A): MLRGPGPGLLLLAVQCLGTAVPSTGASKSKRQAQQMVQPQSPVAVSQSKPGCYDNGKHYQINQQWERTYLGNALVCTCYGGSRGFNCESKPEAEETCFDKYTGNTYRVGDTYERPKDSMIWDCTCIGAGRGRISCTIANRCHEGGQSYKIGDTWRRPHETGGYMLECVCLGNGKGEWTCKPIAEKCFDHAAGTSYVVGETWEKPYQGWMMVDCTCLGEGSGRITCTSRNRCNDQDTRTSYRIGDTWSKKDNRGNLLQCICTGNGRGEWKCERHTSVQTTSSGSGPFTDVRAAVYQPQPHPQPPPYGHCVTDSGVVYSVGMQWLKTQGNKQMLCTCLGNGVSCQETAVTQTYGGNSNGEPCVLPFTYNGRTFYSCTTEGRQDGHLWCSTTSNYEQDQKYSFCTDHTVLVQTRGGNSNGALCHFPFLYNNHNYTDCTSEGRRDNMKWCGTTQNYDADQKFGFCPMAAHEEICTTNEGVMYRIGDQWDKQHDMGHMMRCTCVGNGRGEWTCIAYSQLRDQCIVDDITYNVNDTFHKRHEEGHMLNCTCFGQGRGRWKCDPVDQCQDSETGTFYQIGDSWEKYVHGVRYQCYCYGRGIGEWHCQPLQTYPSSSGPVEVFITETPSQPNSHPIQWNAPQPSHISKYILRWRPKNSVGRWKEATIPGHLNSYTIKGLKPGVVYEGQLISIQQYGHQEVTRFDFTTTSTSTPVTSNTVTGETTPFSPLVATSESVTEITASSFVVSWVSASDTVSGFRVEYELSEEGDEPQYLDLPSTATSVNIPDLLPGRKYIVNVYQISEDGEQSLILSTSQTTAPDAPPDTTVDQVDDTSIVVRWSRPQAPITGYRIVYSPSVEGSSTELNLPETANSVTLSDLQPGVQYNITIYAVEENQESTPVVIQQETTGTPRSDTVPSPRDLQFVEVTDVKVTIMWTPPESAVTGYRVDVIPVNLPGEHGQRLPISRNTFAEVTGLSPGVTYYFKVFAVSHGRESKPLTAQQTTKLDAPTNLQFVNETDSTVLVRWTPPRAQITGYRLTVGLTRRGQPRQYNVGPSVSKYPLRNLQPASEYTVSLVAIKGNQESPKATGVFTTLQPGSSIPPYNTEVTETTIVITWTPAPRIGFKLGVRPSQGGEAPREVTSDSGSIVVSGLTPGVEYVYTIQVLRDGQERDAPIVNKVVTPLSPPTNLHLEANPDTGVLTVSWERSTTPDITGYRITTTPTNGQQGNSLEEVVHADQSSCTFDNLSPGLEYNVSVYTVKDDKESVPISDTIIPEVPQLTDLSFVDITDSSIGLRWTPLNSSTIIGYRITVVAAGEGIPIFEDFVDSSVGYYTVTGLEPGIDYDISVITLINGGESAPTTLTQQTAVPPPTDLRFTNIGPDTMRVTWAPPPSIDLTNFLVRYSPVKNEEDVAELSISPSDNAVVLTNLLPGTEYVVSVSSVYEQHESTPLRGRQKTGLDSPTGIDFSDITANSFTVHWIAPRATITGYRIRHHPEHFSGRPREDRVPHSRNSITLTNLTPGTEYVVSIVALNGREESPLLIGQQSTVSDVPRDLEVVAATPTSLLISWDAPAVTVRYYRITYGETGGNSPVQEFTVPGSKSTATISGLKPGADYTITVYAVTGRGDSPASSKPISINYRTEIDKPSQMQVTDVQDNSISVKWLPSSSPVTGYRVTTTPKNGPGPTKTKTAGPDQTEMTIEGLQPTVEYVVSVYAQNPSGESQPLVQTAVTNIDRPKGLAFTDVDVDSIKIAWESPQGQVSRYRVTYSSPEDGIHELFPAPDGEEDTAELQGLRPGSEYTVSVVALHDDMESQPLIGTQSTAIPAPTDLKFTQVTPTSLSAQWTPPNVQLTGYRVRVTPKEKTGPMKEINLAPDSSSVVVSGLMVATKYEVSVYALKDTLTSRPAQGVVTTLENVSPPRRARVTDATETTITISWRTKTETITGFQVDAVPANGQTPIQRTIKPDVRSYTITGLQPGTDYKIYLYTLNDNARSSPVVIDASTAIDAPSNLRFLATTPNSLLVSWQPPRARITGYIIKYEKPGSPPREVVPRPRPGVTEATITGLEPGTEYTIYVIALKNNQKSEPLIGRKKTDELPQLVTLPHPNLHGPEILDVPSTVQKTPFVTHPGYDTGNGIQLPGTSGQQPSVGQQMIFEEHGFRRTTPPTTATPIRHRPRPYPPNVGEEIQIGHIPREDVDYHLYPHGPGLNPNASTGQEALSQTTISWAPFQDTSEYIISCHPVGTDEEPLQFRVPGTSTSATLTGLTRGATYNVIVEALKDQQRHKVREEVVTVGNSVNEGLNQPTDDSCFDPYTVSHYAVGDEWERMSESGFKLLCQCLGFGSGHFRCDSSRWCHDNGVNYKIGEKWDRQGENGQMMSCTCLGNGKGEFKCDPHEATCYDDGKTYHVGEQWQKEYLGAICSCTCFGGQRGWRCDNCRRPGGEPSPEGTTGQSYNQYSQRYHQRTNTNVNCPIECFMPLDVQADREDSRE
Sequence of Fibronectin P1562A, P02751 (P02751 whole entry P1562A): as the sequence (P02751 whole entry V1603A) above, with P1562A, A1603V counted along it
Sequence of Fibronectin I1625V, P02751 (P02751 whole entry I1625V): as the sequence (P02751 whole entry V1603A) above, with A1603V, I1625V counted along it
Sequence of Fibronectin Y1629F, P02751 (P02751 whole entry Y1629F): as the sequence (P02751 whole entry V1603A) above, with A1603V, Y1629F counted along it
Sequence of Fibronectin A1550G, P02751 (P02751 whole entry A1550G): as the sequence (P02751 whole entry V1603A) above, with A1550G, A1603V counted along it
Sequence of Fibronectin I1571A, P02751 (P02751 whole entry I1571A): as the sequence (P02751 whole entry V1603A) above, with I1571A, A1603V counted along it
Sequence of Fibronectin V1566A, P02751 (P02751 whole entry V1566A): as the sequence (P02751 whole entry V1603A) above, with V1566A, A1603V counted along it
Sequence of Fibronectin Y1569F, P02751 (P02751 whole entry Y1569F): as the sequence (P02751 whole entry V1603A) above, with Y1569F, A1603V counted along it
Sequence of Fibronectin A1611G, P02751 (P02751 whole entry A1611G): as the sequence (P02751 whole entry V1603A) above, with A1603V, A1611G counted along it
Sequence of Fibronectin Y1605F, P02751 (P02751 whole entry Y1605F): as the sequence (P02751 whole entry V1603A) above, with A1603V, Y1605F counted along it
Sequence of Fibronectin Y1629A, P02751 (P02751 whole entry Y1629A): as the sequence (P02751 whole entry V1603A) above, with A1603V, Y1629A counted along it
Sequence of Fibronectin L1545A, P02751 (P02751 whole entry L1545A): as the sequence (P02751 whole entry V1603A) above, with L1545A, A1603V counted along it

Row | Substance | ddG of mutation (higher = less stable) [1] [kcal/mol] | denaturant m value [1] [kcal/mol/M] | denaturant midpoint (higher = more stable) [1] [M] | ddG of mutation (higher = less stable) [2] | denaturant m value [2] [kcal/mol/M] | denaturant midpoint (higher = more stable) [2] [M] | ddG of mutation (higher = less stable) [3] [kcal/mol] | denaturant m value [3] [kcal/mol/M] | denaturant midpoint (higher = more stable) [3] [M]
1 | Fibronectin A1550G, P02751 | 0.93 | 6.1 | 1.33 | – | – | – | – | – | –
2 | Fibronectin I1571A, P02751 | 5.02 | 6.9 | 0.7 | – | – | – | – | – | –
3 | Fibronectin Y1629F, P02751 | -0.11 | 6.5 | 1.49 | – | – | – | – | – | –
4 | Tenascin, P24821 S875A | – | – | – | -0.04 kcal/mol | 1.1 | 5.36 | – | – | –
5 | Tenascin, P24821 P884A | – | – | – | 0.11 kcal/mol | 1.1 | 5.23 | – | – | –
6 | Fibronectin Y1605F, P02751 | 2.03 | 6.2 | 1.16 | – | – | – | – | – | –
7 | Fibronectin Y1569F, P02751 | 0.41 | 6.3 | 1.41 | – | – | – | – | – | –
8 | Tenascin, P24821 I809A | – | – | – | 2.86 kcal/mol | 1.3 | 2.98 | 2.86 | 5.17 | 1.3
9 | Tenascin, P24821 Y869F | – | – | – | 3.13 kcal/mol | 1.3 | 2.75 | 3.13 | 3.01 | 1.3
10 | Fibronectin L1545A, P02751 | 1.64 | 6.2 | 1.22 | – | – | – | – | – | –
11 | Tenascin, P24821 I830V | – | – | – | 0.32 kcal/mol | 1.2 | 5.06 | 0.32 | 2.63 | 1.2
12 | Tenascin, P24821 I860V | – | – | – | 0.83 kcal/mol | 1.2 | 4.64 | 0.83 | 1.86 | 1.5
13 | Fibronectin P1562A, P02751 | 0.48 | 6.5 | 1.4 | – | – | – | – | – | –
14 | Fibronectin A1611G, P02751 | 1.38 | 6.2 | 1.26 | – | – | – | – | – | –
15 | Tenascin, P24821 P865A | – | – | – | 0.93 kcal/mol | 1.2 | 4.55 | 0.93 | 4.32 | 1.2
16 | Tenascin, P24821 S882A | – | – | – | – | – | – | 2.82 | 5.23 | 1.1
17 | Fibronectin V1566A, P02751 | 1.45 | 6.6 | 1.25 | – | – | – | – | – | –
18 | Tenascin, P24821 A819G | – | – | – | 2.8 kcal/mol | 1.3 | 3.03 | 2.8 | 2.31 | 1.3
19 | Tenascin, P24821 Y837A | – | – | – | 4.22 kcal/mol | 1.5 | 1.86 | – | – | –
20 | Fibronectin V1603A, P02751 | 0.67 | 6.12 | 1.37 | – | – | – | – | – | –
21 | Fibronectin I1625V, P02751 | 0.35 | 6.5 | 1.42 | – | – | – | – | – | –
22 | Fibronectin Y1629A, P02751 | 1.19 | 6.6 | 1.29 | – | – | – | – | – | –
23 | Tenascin, P24821 P806A | – | – | – | 2.74 kcal/mol | 1.1 | 3.07 | 2.74 | 2.98 | 1.3
24 | Tenascin, P24821 F889A | – | – | – | 5.43 kcal/mol | – | 0.9 | 5.43 | – | –
25 | Tenascin, P24821 Y858A | – | – | – | 1.38 kcal/mol | 1.3 | 4.19 | 1.38 | – | 1.3
26 | Tenascin, P24821 I830A | – | – | – | 1.38 kcal/mol | 1.1 | 4.19 | 1.38 | 5.06 | 1.2
27 | Tenascin, P24821 I833V | – | – | – | 0.5 kcal/mol | 1.1 | 4.91 | 0.5 | 1.8 | 1.4
28 | Tenascin, P24821 Y858G | – | – | – | 4.14 kcal/mol and 2.76 kcal/mol | 1.3 | 1.93 | – | 4.19 | 1.3
29 | Tenascin, P24821 L863A | – | – | – | 4.22 kcal/mol | 1.5 | 1.86 | 4.22 | 4.55 | 1.2
